Results: patent US20100130423

Tests used:
[1] = target: LnK PH domain (from V5-LnK mutant constructs) (UniProt Q9UQQ2)
[2] = target: adaptor protein LnK, wild type (UniProt Q9UQQ2)

In the case of JAK2 V617F, the “JAK2 V671F autophosphorylation levels” value [1] is reported as “The LnK PH domain associates with and inhibits JAK2 V671F” and the “tyrosine phosphorylation of LnK (anti-phosphotyrosine immunoprecipitation, LnK Western blot)” value [2] is reported as “the phosphorylation levels of LnK itself are higher in 293T cells expressing JAK2 V617F compared with cells expressing JAK2 WT”.
